According to publication PMC12024540, “Peptide-Based Regulation of TNF-α-Mediated Cytotoxicity” (Biomolecules, 2025):
Values belong to the binder of their own block, whether it stands above or below them. Where no end group is shown, it is not given here.

Columns and labels:
[1] = molecular target: T1, Human TNFR1 (soluble) recombinant protein (human, UniProt P19438 42-181, fluorescent label from the Monolith Protein Labeling Kit RED-NHS 2nd Generation (labelled target in MST)); assay: MST; labelled TNFR1 or TNFR2 (RED-NHS 2nd Generation) at 20 nM, peptide titrated in 16 serial dilutions, PBS, 20 min incubation in the dark, Monolith NT.115 Pico, medium MST power; conditions: both partners purified
T1 construct: human TNF receptor 1, soluble recombinant form; also called TNF receptor 1; sTNFR1; source: bought: PeproTech
T1 sequence: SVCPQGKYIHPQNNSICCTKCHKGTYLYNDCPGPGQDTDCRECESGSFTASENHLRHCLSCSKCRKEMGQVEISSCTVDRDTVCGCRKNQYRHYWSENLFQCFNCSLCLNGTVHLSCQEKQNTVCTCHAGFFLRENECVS

[2] = molecular target: T2, Human TNFR2 (soluble) recombinant protein (human, UniProt P20333 33-205, fluorescent label from the Monolith Protein Labeling Kit RED-NHS 2nd Generation (labelled target in MST)); assay: as above; conditions: both partners purified
T2 construct: human TNF receptor 2, soluble recombinant form; also called TNF receptor 2; p80; source: bought: PeproTech
T2 sequence: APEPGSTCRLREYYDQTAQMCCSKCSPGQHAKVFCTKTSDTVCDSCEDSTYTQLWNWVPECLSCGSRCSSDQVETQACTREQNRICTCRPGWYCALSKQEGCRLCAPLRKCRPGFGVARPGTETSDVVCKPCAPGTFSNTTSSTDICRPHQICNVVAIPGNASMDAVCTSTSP

Kd [1]: 0.204 µM
B1: OB5 peptide (peptide)
peptide: NHQVEEQLEWLSQRA-NH2
notes: 15-residue stretch of mouse TNF-α predicted with Rosetta Peptiderive from the mouse TNF-α-human TNFR1 complex; source: synthetic peptide (SPPS, Rink amide resin, HPLC purified)

Kd [1]: 8.6 µM
B2: OB7 peptide (peptide)
peptide: VLLTHTISRIAVSYQTKVNLL
notes: Synthesised on Rink amide resin, so probably with a C-terminal amide (stated only for OB5); 21 residues as printed; source: synthetic peptide (SPPS, Rink amide resin, HPLC purified)

Kd [2]: 3.9 µM
B3: OB6 peptide (peptide)
peptide: NPQAEGQLQWLNRRA
notes: 15-residue stretch of human TNF predicted with Rosetta Peptiderive from the TNF-TNFR2 complex; Synthesised on Rink amide resin, so probably with a C-terminal amide (stated only for OB5); source: synthetic peptide (SPPS, Rink amide resin, HPLC purified)
